# What was measured:
# [1] = molecular target: Low-density lipoprotein receptor 1 (low-density lipoprotein-related protein 1) (human (endogenous in HepG2 and primary human hepatocytes)) (UniProt Q07954); assay: affinity purification with mass spectrometry; as a6, RAP (500 nM) added as competitor to human hepatocyte extract and heme–HPX Affi-Gel 15; amount of receptor isolated
# LRP1 (Homo sapiens) = LRP1 (Homo sapiens) (UniProt Q07954); assay: surface plasmon resonance; conditions: cited from earlier work
percent decrease of LRP1 isolated on proto-heme–human HPX Affi-Gel 15 with 500 nM RAP [1],Substance,Kd (LRP1 (Homo sapiens))
50%,RAP (receptor associated protein) added at 500 nM (from UniProt P30533 35-357) (natural protein),
,hemopexin (from UniProt P02790),4 nM

# Source: PMC12690290
